Assay results published in patent publication US20240327477A1, “COMPOSITIONS AND METHODS FOR THE TREATMENT OF TDP-43 PROTEINOPATHIES” (SOLA BIOSCIENCES LLC, priority 2020, published 2024).
Entries after “also recorded” stand apart in the source; their conditions may differ. Where a SMILES comes first, the peptide text is derived from it. The star is where a group is joined. Cbz = O=C(OCc1ccccc1)*

Experiments:
[1] = molecular target: T1, GFP-TDP43CTF (Homo sapiens, UniProt Q13148); test: Fractionation assay: soluble and insoluble fractions, immunoblot; assay type: cell-based; settings: GFP-TDP43CTF reporter, HEK293 cells
T1 construct: expressed in transfected cells; host or cells: HEK293
Method: Transfected HEK293 cells are homogenized in RIPA buffer (50 mM Tris, pH7.5, 150 mM NaCl, 0.1% NP-40, 0.5% sodium deoxycholate, 0.1% SDS) supplemented with protease inhibitor cocktail, 2 mM PMSF, 10 mM NaF, and 2 mM Na3VO4. After brief sonication, protein concentration is measured by BCA assay kit (Pierce). The equal protein amount is spun down by centrifugation at 16,000×g for 30 minutes at 4° C. to fractionate into soluble fraction (supernatant) and insoluble fraction (pellet). The insoluble fraction is further solubilized in SDS lysis buffer (10 mM Tris, pH8.0, 150 mM NaCl, 2% SDS). Both soluble and insoluble fractions were applied to SDS-PAGE under reducing condition, followed by immunoblotting assay with anti-GFP antibody.

[2] = molecular target: T1, GFP-TDP43CTF; test: Fluorescence microscopy of GFP-TDP43CTF aggregation (GFP foci) in transfected HEK293 cells; assay type: cell-based; settings: for reduction of TDP-43 aggregation: GFP-TDP43CTF reporter, vs reporter alone (FIG. 8/9, Table 12); for aggregation of GFP-TDP43CTF reporter in cells (in words): HEK293 cells, vs reporter alone
Method: (§1) Expression vector plasmids encoding various protein constructs were transfected into HEK293 cells with Lipofectamine 3000 transfection reagent (Thermo Fisher Scientific). Cell lysates were analyzed for expressed proteins using immunoblot assays. Samples of culture media were centrifuged to remove debris prior to analysis. Cells were lysed in a lysis buffer (10 mM Tris-HCl, pH 8.0, 150 mM NaCl, 10 mM EDTA, 2% SDS) containing 2 mM PMSF and protease cocktail (Complete Protease Inhibitor Cocktail; Sigma). After brief sonication, the samples were analyzed for expressed proteins using immunoblot assays. For immunoblot analysis, samples were boiled in an SDS-sample buffer and run on polyacrylamide electrophoresis. Thereafter, the separated protein bands were transferred to a PVDF membrane.
(§2) In some instances, aggregation of TDP-43 (full-length of C-terminal fragment) GFP reporter constructs (described below) were detected in vivo using fluorescence microscopy. Cultured cells expressing the reporter constructs as well as the fusion protein comprising the J domain and TDP-43-binding domain were washed with PBS and fixed with 4% paraformaldehyde in PBS for 5 minutes. After three 5-min washes with PBS, nuclear DNA was stained with DAPI. Percentage of cells containing TDP-43 (GFP foci) in transfected cells was counted.
We first investigated whether the fusion molecule of the present invention targeting TDP-43 ameliorates its aggregation in cultured cells. To this end, we generated GFP-based reporter constructs GFP-TDP43 and GFP-TDP43, wherein GFP was fused at its C-terminus to either the full-length human TDP-43 protein or the C-terminal fragment TDP-43 which is known to form cytoplasmic aggregation and cytotoxicity (See Table 8 below). HEK293 cells were cultured and transfected with the plasmids encoding the full-length TDP43 or the C-terminal fragment of TDP43, containing the C-terminal 207 amino acids TDP-43 (amino acids 208-414 of human TDP-43) as a GFP fusion [GFP-TDP43FL (SEQ ID NO: 101) or GFP-TDP43CTF (SEQ ID NO: 102)].

[3] = molecular target: T2, human TDP-43ΔNLS (Homo sapiens, UniProt Q13148, K82A/K84A/R83A); test: Efficacy in rNLS8 (NEFH-tTA x hTDP-43ΔNLS) mouse model of ALS, ICV AAV rh10; assay type: in vivo; settings: rNLS8 mice (Dox −)
T2 construct: expressed in transfected cells; host or cells: transgene in NEFH-tTA x hTDP-43ΔNLS bigenic mice (rNLS mice), in vivo
Method: Vectors prepared above were tested on TDP-43-asociated pathologies of a novel AAV NEFH-tTA×hTDP-43ΔNLS bigenic mice (rNLS mice). This model has a doxycycline (DOX)-repressible construct expressing pathogenic TDP-43 (human TDP-43ΔNLS). Upon removal of DOX, TDP-43ΔNLS expression causes a rapid and progressive deterioration of the animals, causing severe weight loss and, generally within 6-8 weeks, death. We tested the efficacy of Construct 3 (JB1-scFv (3B12A), SEQ ID NO: 80) in slowing the progression of TDP-43ΔNLS-mediated pathology. AAV rh10 containing control or Construct 3 were administered ICV unilaterally at P1/P2 at a volume of 2 ul (maximum 4 ul) in different groups as shown below in Table 17. Except for the control group 1, DOX removal occurred at week 5. Control mice in group
Body weight was measured twice weekly after weaning. After completion of testing, samples were collected from all surviving mice. Whole brains were collected and split into 2 hemispheres. One hemisphere were weighed and frozen on dry ice. The second hemisphere were post fixed in 4% PFA for histology assessments.

[4] = molecular target: T1, GFP-TDP43CTF; test: Immunoblot (anti-GFP) of reporter level in cell extracts; assay type: cell-based; settings: vs negative control
Method: as §1
(§3) Expressed proteins were detected using a chemiluminescent signal. Briefly, blots were reacted with a primary antibody capable of binding the particular epitope (e.g., GFP). After rinsing away the unreacted primary antibody, a secondary, enzyme-linked antibody (e.g., HRP-linked anti-lgG antibody) was allowed to react with the primary antibody molecules bound to the blots. Following rinsing, a chemiluminescent reagent was added, and the resultant chemiluminescent signals in the blots were captured on X-ray film.

[5] = molecular target: T3, GFP-TDP43FL (Homo sapiens, UniProt Q13148); test: as above; assay type: cell-based; settings: cell extracts (FIG. 5)
T3 construct: expressed in transfected cells; host or cells: HEK293
Method: as §1, §3

[6] = assay type: in vivo, mouse; settings: C57BL/6J mice, AAV rh10 vector encoding Construct 3 vs control, three weeks after ICV or IT injection; data not shown
[7] = molecular target: T3, GFP-TDP43FL; test: Fluorescence microscopy of GFP-TDP43FL aggregation (GFP foci) in transfected HEK293 cells; assay type: cell-based; settings: vs negative controls and construct 2 (FIG. 7)
Method: as §1
as §2, with “counted. […]” for “counted.”

[8] = tested on: GFP-TDP43CTF; test: Bafilomycin A1 or MG132 treatment of cells co-expressing reporter and Construct 3, immunoblot; assay type: cell-based, human; settings: immunoblot (FIG. 10)
Description: Cells were transfected either with the reporter construct GFP-TDP43FL (lane 2) or GFP-TDP43CTF (lanes 3-8), and co-transfected with nucleic acids encoding Construct 3 (lanes 4-8).
We next investigated the mechanism of the fusion protein in reducing aggregation. HEK293 cells were transfected with the GFP-TDP43FL or GFP-TDP43CTF reporter construct, either alone or with Construct 3 (JB1-scFv (3B12A)), as well as with BFA (Bafilomycin A1, an inhibitor of the late phase of autophagy) or MG132 (proteasome inhibitor).

## Construct 20: Construct 3 containing the dimerization domain from human DnaJA1
[1]
  ability to reduce aggregation of GFP-TDP43CTF (in words, with Table 15): potent reduction

## Construct 3: DnaJB1 J domain fused to scFv(3B12A)
[2]
  reduction of TDP-43 aggregation: > 90%
  aggregation of GFP-TDP43CTF reporter in cells (in words): substantially reduced aggregation
[2]; listed as construct 3
  aggregation of GFP-TDP43CTF reporter in cells (in words): dramatically reduced
[3]; AAV rh10 6 × 10^10 vg ICV at P1, DOX removal at week 5 (FIG. 16C)
  survival at week 10: 100%
[3]; males, AAV rh10 6 × 10^10 vg ICV at P1, DOX removal at week 5 (FIG. 16B)
  body weight compared with Group 2 (AAV control, DOX off): statistically significant weight increase
[4]
  amount of GFP-TDP43CTF reporter protein, anti-GFP immunoblot (in words): lower levels
[4]; listed as construct 3
  amount of GFP-TDP43CTF reporter protein, anti-GFP immunoblot (in words): marked reduction
[5]
  levels of the full-length reporter construct (GFP-TDP43FL), anti-GFP immunoblot (in words): No differences
[6]
  body weight: No difference in body weight
[7]
  aggregation level in cells expressing GFP-TDP43FL reporter (in words): modest reduction

## Construct 4: Same as construct 3, with a P33Q mutation in the conserved HPD motif
[2]
  aggregation of GFP-TDP43CTF reporter in cells (in words): did not reduce aggregation
[5]
  levels of the full-length reporter construct (GFP-TDP43FL), anti-GFP immunoblot (in words): No differences

## Construct 14: J domain from DnaJB1 fused to two tandem copies of QBP1
[2]
  reduction of TDP-43 aggregation: ~71%
[4]
  amount of GFP-TDP43CTF reporter protein, anti-GFP immunoblot (in words): lower levels

## CO/C1=C\C(C)=C\[C@@H](C)[C@@H](O)[C@@H](C)C/C(C)=C/C=C/[C@H](OC)[C@@H]([C@@H](C)[C@@H](O)[C@H](C)[C@@]2(O)C[C@@H](O)[C@H](C)[C@@H](C(C)C)O2)OC1=O [BFA, Bafilomycin A1]
[8]; BFA 0.01 μM (10 nM) or 0.1 μM (100 nM)
  level of GFP-TDP43CTF reporter in cells co-expressing Construct 3 after BFA treatment: higher levels; also recorded: reappearance of pathogenic TDP43 in a dose dependent manner

## Construct 9: Full-length J protein control [reference compound]
[2]
  reduction of TDP-43 aggregation: ~43%
[4]
  amount of GFP-TDP43CTF reporter protein, anti-GFP immunoblot (in words): lower levels

## Construct 5: Reversed arrangement of J domain and TDP-43 from Construct 3
[2]
  aggregation of GFP-TDP43CTF reporter in cells (in words): dramatically reduced
[7]
  aggregation level in cells expressing GFP-TDP43FL reporter (in words): modest reduction

## CC(C)C[C@@H](C=O)NC(=O)[C@H](CC(C)C)NC(=O)[C@H](CC(C)C)NC(=O)OCc1ccccc1 [MG132] (Cbz-Leu-Leu-Leu-aldehyde)
[8]; MG132 0.1 μM or 1.0 μM
  level of GFP-TDP43CTF reporter in cells co-expressing Construct 3 after MG132 treatment: little to no effect
